# Patent publication US7150969B2, “Alternatively spliced isoform of acetyl-CoA carboxylase 2 (ACC2)” (Rosetta Inpharmatics LLC, priority 2004, dated 2006)
# System: CC(=O)SCCNC(=O)CCNC(=O)[C@H](O)C(C)(C)COP(=O)(O)OP(=O)(O)OC[C@H]1O[C@@H](n2cnc3c(N)ncnc32)[C@H](O)[C@@H]1OP(=O)(O)O
# Experiment: purified protein, by the assay type
# Conditions: other: 37° C., 40 minutes, pH 7.5, 20 mM citrate
row,Substance,Km [µM]
1,ACC1 (Homo sapiens),51
2,ACC2 (Homo sapiens),108
